Measurements published in article PMC4890791.

Experiments:
Assay in all cases: EMSA
Settings in all cases: EMSA: 10 mM NaCl, 0.1 mM DTT, 0.1 mM EDTA, 10 mM Tris pH 7.4, 25 C 30 min (22-42 C series in Fig 5C), 20 ng Cy5 probe, poly(dI:dC); footprinting: 400 ng FAM …
[1] = biological target: T1, RpoE (sigma E) (Vibrio alginolyticus (EPGS)) (UniProt A0A0H0YA85)
T1 sequence: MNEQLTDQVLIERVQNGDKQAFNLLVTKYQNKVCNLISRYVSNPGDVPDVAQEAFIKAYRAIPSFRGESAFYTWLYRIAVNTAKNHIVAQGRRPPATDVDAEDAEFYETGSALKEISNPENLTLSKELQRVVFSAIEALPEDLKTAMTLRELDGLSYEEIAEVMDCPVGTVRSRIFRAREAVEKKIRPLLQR

[2] = test system: T2, AphA (Vibrio alginolyticus (EPGS)), ORF:ebbe691c
T2 sequence: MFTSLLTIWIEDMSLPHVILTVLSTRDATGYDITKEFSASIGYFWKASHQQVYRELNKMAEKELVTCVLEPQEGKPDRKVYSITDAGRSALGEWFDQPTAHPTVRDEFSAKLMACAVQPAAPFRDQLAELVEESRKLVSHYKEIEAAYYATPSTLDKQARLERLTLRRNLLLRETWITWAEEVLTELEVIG

[3] = test system: RpoE (sigma E) (Vibrio alginolyticus (EPGS))

| Substance | Kd [1] [nM] | binding [1] | binding [2] | Kd [3] [nM] |
| --- | --- | --- | --- | --- |
| AAGATGCTCGCTTGTCAAACTTAGACTAAAGTCAGGCAGCGGTGGTCATTTGGGTACAGACATCACACTGTGAAAAAACAATGACAAAAAACTTGAGAAACCATGGAACTTTCTCATTCACGTTAGGGTCACAATAGTGCTCAAGTAAGCAGTGGTGTCAATACTACGTTTTGCATAATTAGTACCCATATCTGAGAAGAGTAGGGGCATAACAAATAGGAGTATCCGCTCGAATG (double strand) [PrpoE] | 76 | binds |  |  |
| AGTCGCACGCAAACGATCACCTAATCTTACGGCGTGTAGTGTATCACCACGTTCATTGGGTTGAAAGTCGCATCCTGTTGCCAAAAAATCTTGGAAGAAGGTCTTAGTTTTATAAAGTTCATAGCTAAATTTATCAATAATAATGACATTACTGTATATAAATTGTTCTACAGATGTTGACCTTGTGCATATGCACCATTACACTCATCACTGCTTTAAGCAACTATTAAAATAATCAATTAGGGGGTTACCCCCAATATCAACTCAAATGGCAAGGAAAATGGAT (double strand) [PluxR] | 83 | binds | binds |  |
| PluxR |  |  |  | 83 |
| PrpoE |  |  |  | 76 |
| PrpoH |  |  |  | 75 |
